One substance from paper PMC5540154 can be followed below.

For this assay, the target named is D. melanogaster Isu (fIscU) (D. melanogaster) (UniProt Q9VHK6). In words: SEC.

As for “D. melanogaster Isu (fIscU) (from UniProt Q9VHK6 1-154) (natural protein)”, the stoichiometry N came to 2.

The term stoichiometry N denotes the number of molecules, sites or subunits per partner or assembly.
